Six molecules from patent US9005962B2, “Regionalised endoderm cells and uses thereof” (The University Court of the University of Edinburgh, priority 2007, dated 2015) can be followed below.

This data set concerns Hex^RS ES cells. The experiment in a line: ADE (H+C+) induction, serum-free adherent monolayer culture, flow cytometry, RT-PCR and immunostaining. The class given is cell-based. The note with it: for ADE differentiation / ability to promote ADE formation: FIG. 25; for ADE differentiation: added to cultures for days 3-4 or days 3-7, PD173074 100 ng/ml, SU5402 25 μM; for ability to promote ADE formation: monolayer, FGFs at 10 ng/ml. On the procedure:
For ADE induction under serum-free conditions in adherent monolayer culture, ES cells were seeded onto gelatin coated 3 cm 6 well dishes (Iwaki) at a density of 1×10^4 cells/ml in N2B27 medium (StemCellSciences) supplemented with 10 ng/ml Bmp4, 20 ng/ml activin A and 10 ng/ml Fgf4. Following 2 days of culture the media was replaced with SF03 culture medium (Tada 2005) supplemented with 20 ng/ml activin A, 10 ng/ml Fgf4 and 20 ng/ml EGF. The media was replaced 2 days later and then every 3 days for the duration of the experiment. For some experiments 1×10^−5M all-trans retinoic acid, 100 ng/ml PD173074 and 3 μM CHIR99021 were added to the culture at the indicated timepoints.
FITC-conjugated rat anti-CD184 (CXCR4), FITC-conjugated rat anti-CD31 and FITC conjugated rat anti-CD45 were purchased from BD Pharmingen. EBs generated under various different differentiation conditions were dissociated by treatment with cell dissociation buffer (PBS based) (GIBCO-BRL). Cells were washed in PBS supplemented with 10% FCS (FB) and resuspended at a maximum density of 5×10^6 cells/ml. For surface staining 200 μl of cells were plated in a V shape 96 well polystyrene plate (Sterilin) in PBS supplemented with 1% serum of the species in which the antibody was manufactured. The FITC-conjugated antibody or a FITC-conjugated isotype control was added at a 1:100 dilution. Cells were incubated in the dark for 20 mins, washed 3 times with FB and resuspended in FB supplemented with Topro3-iodide (Invitrogen) to exclude dead cell from the analysis. Cells were analysed using a FACS Calibur (BD Biosciences) or sorted using a MoFlo MLS flow cytometer (DakoCytomation).
Total RNA was prepared from a minimum of 1×10^4 cells from sorted cell fractions, EBs, monolayer differentiated cells or ES cells using Trizol reagent (Invitrogen). 1 μg of RNA was used as a template for cDNA synthesis using Superscript III (Invitrogen). Real-time RT-PCR was performed using a LightCycler 480 (Roche) and LightCycler 480 SYBR Green 1 Master (Roche). The following cycling conditions were used: denaturation: 95° C. 5 sec, amplification: 95° C. 5 sec, 58° C. 10 sec, 72° C. 20 sec (45 cycles), 81° C. 1 sec, melt: 95° C. 1 sec, 65° C. 10 sec, 95° C. −ramp 5 C per sec continuous, cool: […] 10 sec. Standard curves were generated from plasmid. Samples were normalized to β-actin or TATA-box binding protein (TBP) expression levels.
Sorted cells were seeded onto gelatin coated 24 well dishes (Iwaki). Adherence of cells to the substrate was enhanced by centrifugation at 1200 rpm for 3 mins. Sorted cells, monolayer differentiated cells and ES cells were washed in PBS, fixed in 4% paraformaldehyde for 10 mins and permeabilised by washing in PBS supplemented with 0.1% Triton X (PBST). Cells were treated with a blocking reagent (3% serum of same species as secondary antibody, 1% BSA in PBST) for 15 min before incubation with the primary antibody at 4° C. overnight. The cells were washed with PBST and incubated with the appropriate fluorescence-tagged secondary antibody for 2 hr at room temperature. The cells were washed with PBST and DAPI added during the final wash. The following primary antibodies were used, all are anti-mouse: anti-Oct3/4, anti-HNF-3β (Foxa2), anti-HNF-4α (Santa Cruz), anti-Cer11 (R&D), anti-E-cadherin (Takara Bio Inc) anti-alpha fetoprotein (NeoMarkers), anti-albumin (Bethyl laboratories inc). Anti-Pdx1 was a gift from P. Serup. […]
FITC-conjugated rat anti-CD184 (Cxcr4), FITC-conjugated rat anti-CD31 and FITC conjugated rat anti-CD45 were purchased from BD Pharmingen. Cells were stained with Topro3-iodide (Invitrogen) to exclude dead cells from the analysis. Cells were analysed using a FACS Calibur (BD Biosciences) or sorted using a MoFlo MLS flow cytometer (DakoCytomation).
For orientation: A flow cytometer gives signals particle by particle.

Where [1] appears, read: FGF signalling blocked for days 3-7.
The mark [2] stands for this setting: exogenous FGF4, defined monolayer culture (FIG. 22C, D).

As to `Cc1c[nH]c(/C=C2\C(=O)Nc3ccccc32)c1CCC(=O)O` [SU5402, reference compound], the ADE differentiation result is “inhibit ADE differentiation”.

Regarding `CCN(CC)CCCCNc1ncc2cc(-c3cc(OC)cc(OC)c3)c(NC(=O)NC(C)(C)C)nc2n1` [PD173074, reference compound], the ADE differentiation entry is given as “inhibit ADE differentiation”. Under setting [1], the “H+C+ and C+ populations” value is recorded as “complete loss”; the “cell survival / viability” value is recorded as “dramatically compromised”. Besides, the “generation of C+ and H+C+ populations” value (inhibitor present for the entire protocol) is on record as “unable to generate either population”. In addition, for the setting “inhibitor present for the first two days of differentiation, then removed”, the “number of C+ and H+C+ cells” value was “reduced number”.

On to “FGF2: fibroblast growth factor, 10 ng/ml”, for which the “ability to promote ADE formation” value is “have the ability to promote ADE formation”.

B1: FGF5: fibroblast growth factor, 10 ng/ml (protein, UniProt P12034 21-268, looked up)
Fibroblast growth factor 5: HGEKRLAPKGQPGPAATDRNPRGSSSRQSSSSAMSSSSASSSPAASLGSQGSGLEQSSFQWSPSGRRTGSLYCRVGIGFHLQIYPDGKVNGSHEANMLSVLEIFAVSQGIVGIRGVFSNKFLAMSKKGKLHASAKFTDDCKFRERFQENSYNTYASAIHRTEKTGREWYVALNKRGKAKRGCSPRVKPQHISTHFLPRFKQSEQPELSFTVTVPEKKKPPSPIKPKIPLSAPRKNTNSVKYRLKFRFG
With B1, the “ability to promote ADE formation” value is “not”.

B2: FGF10: fibroblast growth factor, 10 ng/ml (protein, UniProt O15520 38-208, looked up)
Fibroblast growth factor 10: QALGQDMVSPEATNSSSSSFSSPSSAGRHVRSYNHLQGDVRWRKLFSFTKYFLKIEKNGKVSGTKKENCPYSILEITSVEIGVVAVKAINSNYYLAMNKKGKLYGSKEFNNDCKLKERIEENGYNTYASFNWQHNGRQMYVALNGKGAPRRGQKTRRKNTSAHFLPMVVHS
For the molecule B2, the “ability to promote ADE formation” value is “not”.

B3: FGF4: fibroblast growth factor, 10 ng/ml (R&D) (protein, UniProt P08620 31-206, looked up)
Fibroblast growth factor 4: APTAPNGTLEAELERRWESLVALSLARLPVAAQPKEAAVQSGAGDYLLGIKRLRRLYCNVGIGFHLQALPDGRIGGAHADTRDSLLELSPVERGVVSIFGVASRFFVAMSSKGKLYGSPFFTDECTFKEILLPNNYNAYESYKYPGMFIALSKNGKTKKGNRVSPTMKVTHFLPRL
Turning to B3, the “ability to promote ADE formation” value was “have the ability to promote ADE formation”. Also, the “H+C+ ADE” value (FIG. 22E, FGF4 added solely during the second phase of differentiation) is “up to 20%”. Further, the “number of CXCR4 expressing cells” value (addition of Fgf4, monolayer) is recorded as “did not increase”. Also, under setting [2], the “anterior markers Cer1 and Gsc” value is given as “induction”; the “expression of Foxa2 and Sox17” value is given as “increased”. Also, the “mesodermal and primitive streak gene expression” value (exogenous FGF4, defined monolayer culture (FIG. 22D)) is “suppressing”. Further, the “H+C+ cell number” value (monolayer cultures, inclusion in the differentiation protocol) is reported as “doubled”.
